This is an account of results in patent publication US20120040894A1 (REGENTS OF THE UNIVERSITY OF CALIFONIRA, published 2012).

Numbered stars: 1 amine (or outer) side, 2 acyl side, 3 side chain; on linkers, the order of the positions; unused ones are H or OH. Square brackets hold non-standard residues; d marks the D form. Ends that are not written are not given here. Cys(S-tBut) = S-t-butylthio-L-cysteine, CC(C)(C)SSC[C@H](N[*:1])C(=O)[*:2]; Cys(tBut) = S-t-butyl-L-cysteine, CC(C)(C)SC[C@H](N[*:1])C(=O)[*:2]

Assay [1] addresses T1, ferroportin tagged at the C-terminus with green fluorescent protein (ECR293/Fpn-GFP cells).
T1 sequence (Q9NP59 whole entry, species assumed, looked up): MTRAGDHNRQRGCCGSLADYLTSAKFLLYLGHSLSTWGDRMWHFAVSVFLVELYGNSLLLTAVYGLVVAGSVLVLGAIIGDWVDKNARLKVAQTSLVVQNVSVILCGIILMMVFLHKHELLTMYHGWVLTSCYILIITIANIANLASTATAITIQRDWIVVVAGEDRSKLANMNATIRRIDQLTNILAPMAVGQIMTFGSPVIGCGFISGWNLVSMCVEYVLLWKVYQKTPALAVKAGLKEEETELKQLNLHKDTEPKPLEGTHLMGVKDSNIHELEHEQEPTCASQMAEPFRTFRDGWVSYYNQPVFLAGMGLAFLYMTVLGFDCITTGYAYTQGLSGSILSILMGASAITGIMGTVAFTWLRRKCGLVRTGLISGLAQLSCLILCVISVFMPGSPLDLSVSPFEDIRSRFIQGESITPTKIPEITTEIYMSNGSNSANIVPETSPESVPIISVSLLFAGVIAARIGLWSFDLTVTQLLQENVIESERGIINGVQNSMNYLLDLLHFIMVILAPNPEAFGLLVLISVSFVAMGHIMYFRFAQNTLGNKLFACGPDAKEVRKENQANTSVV
The assay is described as follows: cell-based or functional assay.

Assay [2] has as its target T1, ferroportin tagged at the C-terminus …. Description: cell-based or functional assay. This is another data set of the same source.

As for HFPIC-NH2 [Hep5 (Hep3-7)], the “EC50 (nM); loss of fluorescence of Fpn-GFP cells, flow cytometry” value (shortened to “EC50 (nM); loss”) in assay [1] is more than 10000 nM.

DTHFPIAIFC-NH2 [Hep10 (Hep1-10 C7A)]: in assay [1], the “EC50 (nM); loss” value came to 100 nM.

On to HFPICI-NH2 [Hep6 (Hep3-8)], for which the “EC50 (nM); loss” value in assay [1] came out at 1000 nM.

B1: Cyc-3 (peptide)
peptide: HFPICIF
modifications: not fully specified; C-terminal F carries R1 = -CONH2-CH2-CH2-S; disulfide cyclized (double underlining lost)
With B1, the “EC50 (nM); loss” value in assay [1] is more than 10000 nM.

B2: Hep9C7-tBut (peptide)
peptide: DTHAPI[Cys(tBut)]IF-NH2
modifications: N-terminus assumed
SMILES: CC[C@H](C)[C@H](NC(=O)[C@H](CSC(C)(C)C)NC(=O)[C@@H](NC(=O)[C@@H]1CCCN1C(=O)[C@H](C)NC(=O)[C@H](Cc1c[nH]cn1)NC(=O)[C@@H](NC(=O)[C@@H](N)CC(=O)O)[C@@H](C)O)[C@@H](C)CC)C(=O)N[C@@H](Cc1ccccc1)C(N)=O
For B2, the “EC50 (nM); loss” value in assay [1] is more than 10000 nM.

Regarding FPIC-NH2 [Hep4 (Hep4-7)], in assay [1], the “EC50 (nM); loss” value is more than 10000 nM.

With DTHFPICI-NH2 [Hep8 (Hep1-8)], the “EC50 (nM); loss” value in assay [1] came out at 2000 nM.

Regarding DTHAPICIF-NH2 [Hep9F4A], in assay [1], the “EC50 (nM); loss” value is more than 3000 nM.

As for FICIPFHTD (retroinverted: all D-amino acids; C-terminal amide) [Pr12], the “EC50 (nM); loss” value in assay [1] was 900 nM.

B3: Pr23 (peptide)
peptide: FICIPFHTD
modifications: N-terminal R2 = Chenodeoxycholate-(PEG11)-; retroinverted (D-amino acids); C-terminal amide
B3: the “EC50 (nM); loss” value in assay [1] stood at 100 nM.

As to DTHFPISIF-NH2 [Hep9-C7S], the “EC50 (nM); loss” value in assay [1] is more than 10000 nM.

B4: Hep9C7-SStBut (peptide)
peptide: DTHAPI[Cys(S-tBut)]IF-NH2
modifications: N-terminus assumed
SMILES: CC[C@H](C)[C@H](NC(=O)[C@H](CSSC(C)(C)C)NC(=O)[C@@H](NC(=O)[C@@H]1CCCN1C(=O)[C@H](C)NC(=O)[C@H](Cc1c[nH]cn1)NC(=O)[C@@H](NC(=O)[C@@H](N)CC(=O)O)[C@@H](C)O)[C@@H](C)CC)C(=O)N[C@@H](Cc1ccccc1)C(N)=O
On to B4, for which the “EC50 (nM); loss” value in assay [1] was 700 nM.

B5: Pr27 (peptide)
peptide: FICIPFHTD
modifications: N-terminal R4 = Palmitoyl-(PEG11)-; retroinverted (D-amino acids); C-terminal amide
Turning to B5, the “EC50 (nM); loss” value in assay [1] was 20 nM.

B6: Pr24 (peptide)
peptide: FICIPFHTD
modifications: N-terminal R3 = Ursodeoxycholate-(PEG11)-; retroinverted (D-amino acids); C-terminal amide
As for B6, the “EC50 (nM); loss” value in assay [1] came to 1000 nM.

B7: riHep7ΔDT (peptide)
peptide: [dF][dI][dC][dI][dP][dF][dH]-NH2
modifications: N-terminus assumed
SMILES: CC[C@@H](C)[C@@H](NC(=O)[C@H](N)Cc1ccccc1)C(=O)N[C@H](CS)C(=O)N[C@@H](C(=O)N1CCC[C@@H]1C(=O)N[C@H](Cc1ccccc1)C(=O)N[C@H](Cc1c[nH]cn1)C(N)=O)[C@H](C)CC
Regarding B7, in assay [1], the “EC50 (nM); loss” value was 150 nM.

Turning to DTHFPIAIF-NH2 [Hep9-C7A], the “EC50 (nM); loss” value in assay [1] is more than 10000 nM.

B8: Hep25 (peptide)
peptide: DTHFPICIFCCGCCHRSKCGMCCKT
modifications: disulfide (positions not given here); also: 4 disulfide bonds, pairing not given here
Consider B8, for which the “EC50 (nM); loss” value in assay [1] came out at 10 nM. Also, the “EC50; loss of fluorescence of Fpn-GFP cells” value in assay [2] lay within 5 to 15 nM.

With DTHFPIC-NH2 [Hep7 (Hep1-7)], the “EC50 (nM); loss” value in assay [1] is more than 10000 nM.

For HFPICIF-NH2 [Hep7ΔDT (Hep3-9)], in assay [1], the “EC50 (nM); loss” value was determined as 700 nM.

B9: Pr28 (peptide)
peptide: FICIPFHTD
modifications: not fully specified; N-terminal R5 = 2(Palmitoyl)-Dap(PEG11)-, Dap = diaminopropionic acid; retroinverted (D-amino acids); C-terminal amide
In the case of B9, the “EC50 (nM); loss” value in assay [1] worked out at 3000 nM.
